Data as given in the supplement of paper PMC7125110.
± gives the standard error. For some of these results: Fewer inactive variants are shown than the library holds.

B1: glmS ribozyme (parent)
chain: AUAAAAGCGCCAGAACUACAGAAAUGUAGUUGACGAGGAGGAGGUUUAUCGAAUUUUCGGCGGAUGCCUCCAAA

How the values were obtained:
Settings in all cases: with glucosamine-6-phosphate
glucosamine-6-phosphate [1] = variants of: B1; experiment: kcat; higher = faster cleavage; RNA array
Outline: (§1)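 Tiles bearing barcoded ribozyme variants, transcribed in situ by E. coli RNA polymerase on sequenced MiSeq chips, were imaged over ~14 h at 37 °C using a hybridised Cy3 probe. Glucosamine-6-phosphate was supplied at 40 μM to 10 mM in HEPES/KCl/Mg(OAc)2 buffer. kobs came from one- or two-exponential decay fits to normalised per-tile medians, and weighted Michaelis–Menten fits then provided kcat and KM.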

glucosamine-6-phosphate [2] = variants of: B1; experiment: self-cleavage kobs at 160 uM GlcN6P; higher = faster cleavage; RNA array
Outline: as §1

glucosamine-6-phosphate [3] = variants of: B1; experiment: self-cleavage kobs at 640 uM GlcN6P; higher = faster cleavage; RNA array
Outline: as §1

glucosamine-6-phosphate [4] = variants of: B1; experiment: self-cleavage kobs at 2500 uM GlcN6P; higher = faster cleavage; RNA array
Outline: as §1

glucosamine-6-phosphate [5] = variants of: B1; experiment: self-cleavage kobs at 10000 uM GlcN6P; higher = faster cleavage; RNA array
Outline: as §1

glucosamine-6-phosphate [6] = variants of: B1; experiment: self-cleavage kobs at 40 uM GlcN6P; higher = faster cleavage; RNA array
Outline: as §1

glucosamine-6-phosphate [7] = variants of: B1; experiment: KM; higher = weaker cofactor use; RNA array
Outline: as §1

Row | Variant | kcat (glucosamine-6-phosphate [1]) | self-cleavage kobs at 160 uM GlcN6P (glucosamine-6-phosphate [2]) | self-cleavage kobs at 640 uM GlcN6P (glucosamine-6-phosphate [3]) | self-cleavage kobs at 2500 uM GlcN6P (glucosamine-6-phosphate [4]) | self-cleavage kobs at 10000 uM GlcN6P (glucosamine-6-phosphate [5]) | self-cleavage kobs at 40 uM GlcN6P (glucosamine-6-phosphate [6]) | KM (glucosamine-6-phosphate [7])
1 | AUAAAAGCGCCAGAACUACAGAAAUGUAGUUGACGAGGAGGAGGUUUAUCGAAUUUUCGGCGGAUACGUCCAAA [G66A C68G] | 6.98e-05 ± 9.4e-06 s⁻¹ | 3.51e-05 ± 1.2e-05 s⁻¹ | 5.08e-05 ± 7.5e-06 s⁻¹ | 4.73e-05 ± 1e-05 s⁻¹ | 7.85e-05 ± 7.5e-06 s⁻¹ | – | –
2 | AUAAAAGCGCCAGAGCUACAGAAAUGUAUUUGACGAGGAGGAGGUUUAUCGAAUUUUCGGCGGAUGCCUCCAAA [A15G G29U] | 0.00177 ± 0.00076 s⁻¹ | 0.000104 ± 4.4e-05 s⁻¹ | 0.000265 ± 0.0001 s⁻¹ | 0.00118 ± 0.00039 s⁻¹ | 0.00145 ± 0.00039 s⁻¹ | 6.06e-05 ± 1.7e-05 s⁻¹ | –
3 | AUAAAAGCGCUACAACUACAGAAAUGUAGUUGACGAGGAGGAGGUUUAUCGUAUUUUCGGCGGAUGCCUUCAAA [C11U G13C A52U C70U] | 1.58e-05 ± 5.8e-06 s⁻¹ | – | – | – | < 1e-05 s⁻¹ | < 1e-05 s⁻¹ | –
4 | AUAAAAGCGCAAGAACUACAGAAAUGUAGUUGACGAGGAGGAGGUUUAUCGAAGUUUCGGCGGAUGCCUCCAAA [C11A U54G] | 0.000149 ± 2.7e-05 s⁻¹ | – | – | 7.77e-05 ± 1.3e-05 s⁻¹ | 0.000123 ± 1.4e-05 s⁻¹ | – | –
5 | AUAAAAGCGCCAGAACUACAGAAAUGUAGUUGACGAGGAGGAGGUUUAUCGAAUUUACGGCGGAUGGCUCCAAA [U57A C67G] | 5.87e-05 ± 1.1e-05 s⁻¹ | – | 5.39e-05 ± 1.5e-05 s⁻¹ | 3.77e-05 ± 1.1e-05 s⁻¹ | 7.6e-05 ± 1.1e-05 s⁻¹ | – | –
6 | AUAAAAGCGCCAGAACUACAGAAAUGUAGUUGACGAGGAGGACGUUUAUCGAAUUUUCGGCGGAUGCAUCCAAA [G43C C68A] | 1.06e-05 ± 2.2e-06 s⁻¹ | – | – | – | – | < 1e-05 s⁻¹ | –
7 | AUAAAAGCGCCAGAACUACAGAAAUGUAGUUGACGAGGAGGAGGUUUAUCGAAUGUUCGGCGGAUGCCUGCAAA [U55G C70G] | 0.000127 ± 2.5e-05 s⁻¹ | 7.54e-05 ± 1.6e-05 s⁻¹ | 0.00014 ± 1.9e-05 s⁻¹ | 0.000184 ± 3.8e-05 s⁻¹ | 9.38e-05 ± 1.8e-05 s⁻¹ | 2.75e-05 ± 1.4e-05 s⁻¹ | –
8 | AUAAAAGCGCAAGAACUACAGAAAUGUAGUUGACGAGGAGAAGGUUUAUCGAAUUUUCGGCGGAUGCCUCCAAA [C11A G41A] | < 1e-05 s⁻¹ | < 1e-05 s⁻¹ | < 1e-05 s⁻¹ | – | – | – | 2450 ± 650 µM
9 | AUAAAACCGCCAGAACUACAGAAAUGUAGUUGACGACGAGGAGGUUUAUCGAAUUUUCGGCGGAUGCCUCCAAA [G7C G37C] | < 1e-05 s⁻¹ | – | – | < 1e-05 s⁻¹ | < 1e-05 s⁻¹ | < 1e-05 s⁻¹ | –
